Reference: patent publication US20230398218A1, “RAS NEOANTIGENS AND USES THEREOF” (priority 2020, published 2023)

B1: … (peptide)
peptide: STVQLIMQL
B2: … (peptide)
peptide: QLIMQLMPFG
B3: … (peptide)
peptide: CLTSTVQLIM
B4: … (peptide)
peptide: LIMQLMPFG
B5: … (peptide)
peptide: IMQLMPFGC
B6: … (peptide)
peptide: VQLIMQLMPF
B7: … (peptide)
peptide: SLLNYLREM
B8: … (peptide)
peptide: QLIMQLMPF
B9: … (peptide)
peptide: MANGSLLNYL
B10: … (peptide)
peptide: IMQLMPFGCL
B11: … (peptide)
peptide: MQLMPFGCLL
B12: … (peptide)
peptide: MQLMPFGCL
B13: … (peptide)
peptide: YMANGSLLN
B14: … (peptide)
peptide: LTSTVQLIM

The binders below were run against HLA-A02.01 (human) (assay: competition with radiolabeled reference peptide on prepared MHC class I). Settings: remark: other sources report otherwise.

Row | Binder | Affinity [nM]
1 | B1 | 7260
2 | B2 | 5210
3 | B3 | 537
4 | B4 | 3340
5 | B5 | 1210
6 | B6 | 4940
7 | B7 | 67.7
8 | B8 | 193
9 | B9 | 1010
10 | B10 | 653
11 | B11 | 16.3
12 | B12 | 116
13 | B13 | 4000

Each binder was assayed against HLA-A24.02 (human) in the same assay as above. Settings: remark: other sources report otherwise.

Row | Binder | Affinity [µM]
14 | B6 | 4.1
15 | B10 | 14.1
16 | B11 | 18.9

The binders below were run against HLA-A01.01 (human) in the same assay as above. Settings: remark: other sources report otherwise.

Row | Binder | Affinity [µM]
17 | B3 | 8.28
18 | B14 | 2.89

These binders were tested against HLA-B07.02 (human) in the same assay as above. Settings: remark: other sources report otherwise.

Row | Binder | Affinity [nM]
19 | B7 | 866
20 | B12 | 1590

Each binder was assayed against HLA-A02.01 (human) (assay: pMHC-I complex dissociation at 37 C, radiolabeled b2m). Settings: remark: other sources report otherwise.

Row | Binder | Stability (half-life (hr.)) [min]
21 | B1 | 0
22 | B2 | 0
23 | B3 | 0
24 | B4 | 0
25 | B5 | 22.2
26 | B6 | 0
27 | B7 | 183
28 | B8 | 20.4
29 | B9 | 0
30 | B10 | 30.9
31 | B11 | 22.9
32 | B12 | 22.1
33 | B13 | 0

Each binder was assayed against HLA-A24.02 (human) in the same assay as above. Settings: remark: other sources report otherwise.

Row | Binder | Stability (half-life (hr.)) [min]
34 | B6 | 0
35 | B8 | 22.1
36 | B10 | 0
37 | B11 | 0

The binders below were run against HLA-A01.01 (human) in the same assay as above. Settings: remark: other sources report otherwise.

Row | Binder | Stability (half-life (hr.)) [min]
38 | B3 | 0
39 | B14 | 6.22

These binders were tested against HLA-B07.02 (human) in the same assay as above. Settings: remark: other sources report otherwise.

Row | Binder | Stability (half-life (hr.)) [h]
40 | B7 | 0
41 | B9 | 0
42 | B12 | 0
